For experiment [1], the target named is T1, CD3 (细胞表面CD3, Jurkat细胞).
T1 construct: whole, on cells; also called CD3抗原; CD3阳性的Jurkat细胞
As to the kind of experiment: flow cytometry on Jurkat cells, Alexa488 anti-human IgG-Fc, MFI fitted in GraphPad Prism. (In general: Flow cytometry measures light scatter and fluorescence of single cells or particles in a stream.)

Experiment [2] has as its target T2, CD19 (细胞表面CD19, Raji细胞) (UniProt P15391 20-556, limits assumed).
T2 sequence (looked up): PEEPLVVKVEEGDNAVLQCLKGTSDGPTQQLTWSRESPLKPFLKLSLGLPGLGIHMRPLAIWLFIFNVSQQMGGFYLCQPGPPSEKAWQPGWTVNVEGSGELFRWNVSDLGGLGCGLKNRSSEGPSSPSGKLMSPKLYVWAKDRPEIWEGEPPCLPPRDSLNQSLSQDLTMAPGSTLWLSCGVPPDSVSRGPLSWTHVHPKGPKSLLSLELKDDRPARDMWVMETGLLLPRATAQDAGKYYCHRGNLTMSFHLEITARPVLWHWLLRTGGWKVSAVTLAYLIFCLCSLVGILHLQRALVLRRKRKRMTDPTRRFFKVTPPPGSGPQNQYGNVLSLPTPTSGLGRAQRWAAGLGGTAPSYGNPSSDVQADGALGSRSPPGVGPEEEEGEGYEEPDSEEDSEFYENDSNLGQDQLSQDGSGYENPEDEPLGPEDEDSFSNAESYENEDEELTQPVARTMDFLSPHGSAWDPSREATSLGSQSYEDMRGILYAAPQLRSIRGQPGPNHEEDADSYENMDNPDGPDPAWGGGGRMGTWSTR
As to the kind of experiment: cell-based or functional assay.

In experiment [3] the target is T2, CD19 (细胞表面CD19, Raji细胞). As to the kind of experiment: flow cytometry on Raji cells, Alexa488 anti-human IgG-Fc, MFI fitted in GraphPad Prism.

The record followed here is patent publication CN110623921A (BEIJING DONGFANG BIOTECH CO LTD, dated 2019).

For orientation: EC50 means the concentration giving half of the maximal effect. Lower therefore signals an effect from little substance.

T1 sequence (P07766 23-207): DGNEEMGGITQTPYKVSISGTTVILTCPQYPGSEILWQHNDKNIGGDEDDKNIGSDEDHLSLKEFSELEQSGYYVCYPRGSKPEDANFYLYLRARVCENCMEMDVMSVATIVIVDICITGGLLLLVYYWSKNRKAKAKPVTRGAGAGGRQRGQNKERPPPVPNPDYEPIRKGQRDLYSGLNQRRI

B1: 抗CD3和抗CD19双特异性抗体JY039 (bispecific antibody)
chain 1: not shown
chain 2: not shown
chain 3: QVQLQQSGAELVRPGSSVKISCKASGYAFSSYWMNWVKQRPGQGLEWIGQIWPGDGDTNYNGKFKGKATLTADESSSTAYMQLSSLASEDSAVYFCARRETTTVGRYYYAMDYWGQGTTVTVSS
chain 4: DIQLTQSPASLAVSLGQRATISCKASQSVDYDGDSYLNWYQQIPGQPPKLLIYDASNLVSGIPPRFSGSGSGTDFTLNIHPVEKVDAATYHCQQSTEDPWTFGGGTKLEIK
For B1, the EC50 in experiment [1] came out at 21.6 nM; in experiment [3] it was 1.02 nM. In addition, in experiment [2], the “EC50 of PBMC-mediated killing of Raji cells (LDH release)” value came to 0.00126 nM.

B2: 抗CD19的单克隆抗体 (JY039的抗CD19序列构建) (antibody, V domains shown)
VH: QVQLQQSGAELVRPGSSVKISCKASGYAFSSYWMNWVKQRPGQGLEWIGQIWPGDGDTNYNGKFKGKATLTADESSSTAYMQLSSLASEDSAVYFCARRETTTVGRYYYAMDYWGQGTTVTVSS
VL: DIQLTQSPASLAVSLGQRATISCKASQSVDYDGDSYLNWYQQIPGQPPKLLIYDASNLVSGIPPRFSGSGSGTDFTLNIHPVEKVDAATYHCQQSTEDPWTFGGGTKLEIK
notes: also called AntiCD19McAb; 抗CD19单克隆抗体
As to B2, in experiment [2], the “EC50 of PBMC-mediated killing of Raji cells (LDH release)” value is 0.222 nM. Further, in experiment [3], the EC50 was 0.191 nM.
